# Reference: PMC3614025
# Values joined by “and” are separate entries in the source; they are usually repeats but may differ in a detail not shown here. Identical values can stand only once.
# Target: Chikungunya virus nuclear capsid protein (Chikungunya virus)
# Assay: cryo-EM structure
substance,measurement,value
Chikungunya virus nuclear capsid protein (natural protein),stoichiometry N,5 and 6
